Measurements as given in paper PMC3089470 (Nucleic Acids Research, 2011).

Experiments:
Test in all cases: pull-down
[1] = target: purified recombinant MRN complex (Mre11:Rad50:NBS1) (UniProt P49959;Q92878;O60934)
[2] = target: T1, NBS1A with the mutation R215W (UniProt O60934 1-221, R215W)
T1 sequence: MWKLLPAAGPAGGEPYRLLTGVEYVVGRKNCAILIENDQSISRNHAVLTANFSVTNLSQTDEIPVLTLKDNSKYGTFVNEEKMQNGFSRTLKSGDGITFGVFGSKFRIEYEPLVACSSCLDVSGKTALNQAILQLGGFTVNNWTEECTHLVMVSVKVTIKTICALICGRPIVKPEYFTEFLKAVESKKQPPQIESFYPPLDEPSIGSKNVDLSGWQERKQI

[3] = target: T2, NBS1A with the mutation I171V (UniProt O60934 1-221, I171V)
T2 sequence: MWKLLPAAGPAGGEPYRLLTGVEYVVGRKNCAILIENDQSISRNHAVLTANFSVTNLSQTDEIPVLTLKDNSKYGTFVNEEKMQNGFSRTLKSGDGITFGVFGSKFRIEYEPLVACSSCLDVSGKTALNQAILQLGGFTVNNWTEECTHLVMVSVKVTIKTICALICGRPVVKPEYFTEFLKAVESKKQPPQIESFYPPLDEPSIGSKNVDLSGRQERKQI

[4] = target: T3, GST-tagged NBS1 fragment NBS1A (1-221) (UniProt O60934 1-221)
T3 sequence: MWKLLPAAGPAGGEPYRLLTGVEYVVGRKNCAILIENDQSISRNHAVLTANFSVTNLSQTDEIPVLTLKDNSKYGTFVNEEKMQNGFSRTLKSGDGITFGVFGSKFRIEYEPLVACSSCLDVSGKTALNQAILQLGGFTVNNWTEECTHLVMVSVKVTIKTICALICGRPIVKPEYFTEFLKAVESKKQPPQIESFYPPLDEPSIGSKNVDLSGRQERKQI

purified recombinant MRN complex (Mre11:Rad50:NBS1), sequence (P49959 whole entry, chain 1 of 2): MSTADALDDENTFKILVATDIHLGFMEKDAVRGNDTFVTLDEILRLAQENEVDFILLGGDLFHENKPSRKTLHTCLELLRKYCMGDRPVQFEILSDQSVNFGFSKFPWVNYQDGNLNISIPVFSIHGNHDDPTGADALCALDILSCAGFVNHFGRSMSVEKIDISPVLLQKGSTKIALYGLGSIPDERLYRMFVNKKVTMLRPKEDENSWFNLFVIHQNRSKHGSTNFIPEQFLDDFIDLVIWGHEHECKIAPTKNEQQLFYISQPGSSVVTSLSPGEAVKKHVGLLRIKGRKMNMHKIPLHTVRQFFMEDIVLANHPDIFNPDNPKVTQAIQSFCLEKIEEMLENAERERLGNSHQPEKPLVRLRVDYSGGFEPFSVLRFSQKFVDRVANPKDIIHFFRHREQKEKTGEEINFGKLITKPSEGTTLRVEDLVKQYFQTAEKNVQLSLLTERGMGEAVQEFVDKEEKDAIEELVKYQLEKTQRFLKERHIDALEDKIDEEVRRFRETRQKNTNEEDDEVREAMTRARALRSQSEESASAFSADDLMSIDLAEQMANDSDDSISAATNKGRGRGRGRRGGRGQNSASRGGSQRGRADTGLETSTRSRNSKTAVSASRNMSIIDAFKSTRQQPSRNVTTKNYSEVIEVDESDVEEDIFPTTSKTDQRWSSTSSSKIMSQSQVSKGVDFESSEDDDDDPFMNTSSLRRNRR
purified recombinant MRN complex (Mre11:Rad50:NBS1), sequence (Q92878 whole entry, chain 2 of 2): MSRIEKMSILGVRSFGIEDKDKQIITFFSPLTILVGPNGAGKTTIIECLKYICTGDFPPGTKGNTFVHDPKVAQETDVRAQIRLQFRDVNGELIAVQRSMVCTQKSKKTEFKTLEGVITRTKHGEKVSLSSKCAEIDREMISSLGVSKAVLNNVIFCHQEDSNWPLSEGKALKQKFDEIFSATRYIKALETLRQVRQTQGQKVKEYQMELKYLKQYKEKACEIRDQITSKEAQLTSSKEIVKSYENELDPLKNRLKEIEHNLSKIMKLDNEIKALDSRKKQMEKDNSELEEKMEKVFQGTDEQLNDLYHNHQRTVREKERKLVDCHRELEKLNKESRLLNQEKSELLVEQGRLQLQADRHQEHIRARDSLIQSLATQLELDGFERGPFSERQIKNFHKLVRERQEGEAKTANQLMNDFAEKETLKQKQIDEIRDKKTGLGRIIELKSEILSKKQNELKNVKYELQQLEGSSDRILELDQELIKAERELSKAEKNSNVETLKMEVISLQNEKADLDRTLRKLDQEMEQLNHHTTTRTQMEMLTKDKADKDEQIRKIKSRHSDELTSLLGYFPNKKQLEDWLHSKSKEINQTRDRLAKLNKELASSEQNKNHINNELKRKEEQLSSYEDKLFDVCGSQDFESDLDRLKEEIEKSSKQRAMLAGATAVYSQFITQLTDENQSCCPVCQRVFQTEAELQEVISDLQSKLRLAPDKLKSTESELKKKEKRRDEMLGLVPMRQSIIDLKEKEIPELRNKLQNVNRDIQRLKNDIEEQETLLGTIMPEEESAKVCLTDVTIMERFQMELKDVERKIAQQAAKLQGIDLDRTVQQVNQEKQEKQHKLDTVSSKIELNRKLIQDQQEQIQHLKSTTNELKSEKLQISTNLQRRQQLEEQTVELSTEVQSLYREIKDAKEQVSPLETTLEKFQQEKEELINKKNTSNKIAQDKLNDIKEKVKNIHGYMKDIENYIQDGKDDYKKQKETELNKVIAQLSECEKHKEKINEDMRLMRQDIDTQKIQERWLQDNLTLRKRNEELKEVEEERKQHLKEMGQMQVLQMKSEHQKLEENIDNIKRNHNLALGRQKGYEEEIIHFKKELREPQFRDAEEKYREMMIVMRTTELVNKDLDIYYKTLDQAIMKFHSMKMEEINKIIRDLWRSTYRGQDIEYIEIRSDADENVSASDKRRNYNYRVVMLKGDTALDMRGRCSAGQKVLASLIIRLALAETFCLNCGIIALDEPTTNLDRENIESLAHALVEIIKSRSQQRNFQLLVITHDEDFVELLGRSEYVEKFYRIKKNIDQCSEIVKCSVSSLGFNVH

binding result [1]: binds
binding result [2]: binds
binding result [3]: binds
binding result [4]: binds
B1: hSSB1, full-length recombinant, His-tagged (natural protein)
chain: MTTETFVKDIKPGLKNLNLIFIVLETGRVTKTKDGHEVRTCKVADKTGSINISVWDDVGNLIQPGDIIRLTKGYASVFKGCLTLYTGRGGDLQKIGEFCMVYSEVPNFSEPNPEYSTQQAPNKAVQNDSNPSASQPTTGPSAASPASENQNGNGLSAPPGPGGGPHPPHTPSHPPSTRITRSQPNHTPAGPPGPSSNPVSNGKETRRSSKR
